This is an account of results in PMC5895635.

Holding throughout (assay): two-hybrid; β-galactosidase activity in yeast strain AH109 with the Yeast β-galactosidase Assay Kit (Thermo Fisher Scientific); pGBKT7 bait and pGADT7 prey; three biological replicates
Experiment [1] concerns the target MnMADS33 (mulberry 'Jinqiang 63' (JQ63) used for vector construction; gene identified in Morus notabilis).
The target in experiment [2] is MnMADS50 (mulberry 'Jinqiang 63' (JQ63) used for vector construction; gene identified in Morus notabilis).
The target in experiment [3] is MnMADS1 (mulberry 'Jinqiang 63' (JQ63) used for vector construction; gene identified in Morus notabilis).
A further experiment concerns the target pGBKT7-53.

For MnMADS1 (natural protein), the results for the β-galactosidase activity in experiment [1] and in experiment [2] were 15.1 units and 16.3 units, respectively. As to MnMADS33 (natural protein), the β-galactosidase activity in experiment [3] is 17.5 units. The same measure, in the same setting: the same measure for MnMADS50 (natural protein): 15.3 units. On to pGADT7-T, for which, in the experiment with pGBKT7-53, the β-galactosidase activity was determined as 15.7 units.
